Test results reported in patent US20230310432A1 (JULIUS-MAXIMILIANS-UNIVERSITÄT WÜRZBURG, priority 2017, published 2023).
One block for each molecule: values may come before it.

What was measured:
[1] = system: CD8+ T cells expressing a CD19 CAR with 4-1BB costimulation; experiment: Bioluminescence-based cytotoxicity assay, K562/CD19 target cells; assay type: cell-based, human
Procedure: Cytotoxicity: Target cells were stably transduced with ffluc_GFP and incubated in triplicate wells at 1×10^4 cells/well with effector T cells at an effector to target (E:T) ratio of 5:1. D-luciferin substrate (Biosynth, Staad, Switzerland) was added to the co-culture to a final concentration of 0.15 mg/ml and the decrease in luminescence signal in wells that contained target cells and T-cells was measured using a luminometer (Tecan, Mannedorf, Switzerland). Specific lysis was calculated using the standard formula.
The inventors prepared CD8+ CAR-T cell lines from n=3 healthy donors. In each of the T-cell lines, the inventors enriched CAR-expressing T cells to >90% purity using the EGFRt-transduction marker. The inventors analyzed cytolytic activity of CD8^+ CAR-T cells in a bioluminescence-based cytotoxicity assay using K562 that the inventors had transduced with either CD19 (for testing CD19 CAR-T cells) or ROR1 (for testing ROR1 CAR-T cells) as target cells. Dasatinib was added to the assay medium at the beginning of the assay.
The inventors prepared CD8^+ CAR-T cell lines from n=3 healthy donors. In each of the T-cell lines, the inventors enriched CAR-expressing T cells to >90% purity using the EGFRt-transduction marker. The inventors analyzed cytolytic activity of CD8^+ CAR-T cells in a bioluminescence-based cytotoxicity assay using K562 target cells that the inventors had transduced with CD19.
The CAR-T cell cytolytic activity was analyzed at 1-hour intervals for 10 hours.
The inventors analyzed cytolytic activity of CD8+ CAR-T cells in a bioluminescence-based cytotoxicity assay.
The inventors prepared CD8^+ CD19 CAR-T cell lines with a 4-1BB costimulatory domain from one healthy donor. In the T-cell line, the inventors enriched CAR expressing T cells to >90% purity using the EGFRt-transduction marker. The inventors analyzed cytolytic activity of CD8^+ CAR-T cells in a 4-hour bioluminescence-based cytotoxicity assay using K562 that the inventors had transduced with CD19 as target cells to assess the influence of a panel of Src-kinase inhibitors on the cytolytic function of CAR-T cells. Src-kinase inhibitors were added to the assay medium at the beginning of the assay over a 4-log concentration range.

[2] = system: CD8+ T cells expressing a CD19 CAR with 4-1BB costimulation; experiment: Cytokine production and secretion (IFN-γ, IL-2 ELISA), co-culture with K562/CD19; assay type: cell-based, human; settings: any given concentration of dexamethasone; pre-treated or during assay only
[3] = system: CD8+ T cells expressing a CD19 CAR with 4-1BB costimulation; experiment: CFSE proliferation assay, co-culture with K562/CD19; assay type: cell-based, human; settings: dexamethasone, any given concentration; 24 h-pretreatment or at start of co-culture; 72 h
[4] = system: CAR-T cells co-expressing the iCasp suicide gene; experiment: Elimination of iCasp+ T cells; assay type: cell-based, human; settings: dimerizer (10 nM AP20187) without dasatinib; 24 hours
Procedure: After 24 hours, cells were labeled with anti-CD3 mAB and analyzed by flow cytometry for the presence of iCasp+ T cells.
After 24 hours, cells were labeled with anti-CD3 mAB and analyzed by flow cytometry for the presence of iCasp^+ T cells.

[5] = system: CD8+ T cells expressing a ROR1 CAR with 4-1BB costimulatory domain; experiment: IFN-γ ELISA, co-culture with RCH-ACV; assay type: cell-based, human; settings: […] nilotinib; 20 h; 1310 pg/ml by untreated CAR-T cells
human SLAMF7 (human) = human SLAMF7 (human) (UniProt Q9NQ25); experiment: cell-based or functional assay
human ROR1 (human) = human ROR1 (human) (UniProt Q01973); experiment: cell-based or functional assay

Molecule: Cc1ccc(-c2nn(C(C)(C)C)c3ncnc(N)c23)cc1 [PP1-inhibitor]
specific lysis of target cells ([1]; inhibitor 10 nM, 4-hour assay, 82% by untreated CAR-T cells): 62.4%

Molecule: C[C@@H]1C[C@H]2[C@@H]3CCC4=CC(=O)C=C[C@]4(C)[C@@]3(F)[C@@H](O)C[C@]2(C)[C@@]1(O)C(=O)CO [dexamethasone]
residual specific IFN-γ secretion compared to non-treated CAR-T cells [2]: more than 43%
residual specific IL-2 secretion compared to non-treated CAR-T cells [2]: less than 17%
remaining proliferation compared to untreated CAR-T cells [3]: less than 26%
specific lysis of target cells ([1]; dexamethasone added at the beginning of the assay, any of the applied dosages (0.1-100 μM), 91% non-treated): > 87%
specific lysis of target cells ([1]; pre-treated for 24 h with dexamethasone, all tested doses, t=10 h, 91% non-treated): > 45%

Molecule: CC[C@H](C(=O)N1CCCC[C@H]1C(=O)O[C@H](CCc1ccc(OC)c(OC)c1)c1cccc(OCC(=O)NCC(CNC(=O)COc2cccc([C@@H](CCc3ccc(OC)c(OC)c3)OC(=O)[C@@H]3CCCCN3C(=O)[C@@H](CC)c3cc(OC)c(OC)c(OC)c3)c2)CN(C)C)c1)c1cc(OC)c(OC)c(OC)c1 [dimerizer, AP20187]
percentage of iCasp+ cells [4]: 45%

Molecule: Cc1cn(-c2cc(NC(=O)c3ccc(C)c(Nc4nccc(-c5cccnc5)n4)c3)cc(C(F)(F)F)c2)cn1 [nilotinib]
production and secretion of IFN-γ [5]: 480 pg/mL

specific lysis of K562/SLAMF7 target cells by CD8+ CAR-T cells without dasatinib, t=6 h (human SLAMF7 (human)): 63%
specific lysis of K562/SLAMF7 target cells by CD8+ CAR-T cells without dasatinib, t=12 h (human SLAMF7 (human)): 83%
B1: SLAMF7 CAR with 4-1BB costimulatory domain (receptor)
chain: EVQLVESGGGLVQPGGSLRLSCAASGFDFSRYWMSWVRQAPGKGLEWIGEINPDSSTINYAPSLKDKFIISRDNAKNSLYLQMNSLRAEDTAVYYCARPDGNYWYFDVWGQGTLVTVSSGGGGSGGGGSGGGGSDIQMTQSPSSLSASVGDRVTITCKASQDVGIAVAWYQQKPGKVPKLLIYWASTRHTGVPDRFSGSGSGTDFTLTISSLQPEDVATYYCQQYSSYPYTFGQGTKVEIKESKYGPPCPPCPAPPVAGPSVFLFPPKPKDTLMISRTPEVTCVVVDVSQEDPEVQFNWYVDGVEVHNAKTKPREEQFQSTYRVVSVLTVLHQDWLNGKEYKCKVSNKGLPSSIEKTISKAKGQPREPQVYTLPPSQEEMTKNQVSLTCLVKGFYPSDIAVEWESNGQPENNYKTTPPVLDSDGSFFLYSRLTVDKSRWQEGNVFSCSVMHEALHNHYTQKSLSLSLGKMFWVLVVVGGVLACYSLLVTVAFIIFWVKRGRKKLLYIFKQPFMRPVQTTQEEDGCSCRFPEEEEGGCELRVKFSRSADAPAYQQGQNQLYNELNLGRREEYDVLDKRRGRDPEMGGKPRRKNPQEGLYNELQKDKMAEAYSEIGMKGERRRGKGHDGLYQGLSTATKDTYDALHMQALPPR

specific lysis of K562/SLAMF7 target cells by CD8+ CAR-T cells without dasatinib, t=6 h (human SLAMF7 (human)): 67%
specific lysis of K562/SLAMF7 target cells by CD8+ CAR-T cells without dasatinib, t=12 h (human SLAMF7 (human)): 85%
B2: SLAMF7 CAR with CD28 costimulatory domain (receptor)
chain: EVQLVESGGGLVQPGGSLRLSCAASGFDFSRYWMSWVRQAPGKGLEWIGEINPDSSTINYAPSLKDKFIISRDNAKNSLYLQMNSLRAEDTAVYYCARPDGNYWYFDVWGQGTLVTVSSGGGGSGGGGSGGGGSDIQMTQSPSSLSASVGDRVTITCKASQDVGIAVAWYQQKPGKVPKLLIYWASTRHTGVPDRFSGSGSGTDFTLTISSLQPEDVATYYCQQYSSYPYTFGQGTKVEIKESKYGPPCPPCPAPPVAGPSVFLFPPKPKDTLMISRTPEVTCVVVDVSQEDPEVQFNWYVDGVEVHNAKTKPREEQFQSTYRVVSVLTVLHQDWLNGKEYKCKVSNKGLPSSIEKTISKAKGQPREPQVYTLPPSQEEMTKNQVSLTCLVKGFYPSDIAVEWESNGQPENNYKTTPPVLDSDGSFFLYSRLTVDKSRWQEGNVFSCSVMHEALHNHYTQKSLSLSLGKMFWVLVVVGGVLACYSLLVTVAFIIFWVRSKRSRGGHSDYMNMTPRRPGPTRKHYQPYAPPRDFAAYRSRVKFSRSADAPAYQQGQNQLYNELNLGRREEYDVLDKRRGRDPEMGGKPRRKNPQEGLYNELQKDKMAEAYSEIGMKGERRRGKGHDGLYQGLSTATKDTYDALHMQALPPR

IFN-γ in supernatant (ELISA) of co-culture with RCH-ACV target cells, untreated CD8+ CAR-T cells (human ROR1 (human)): 1310 pg/mL
proliferation index (CFSE) after 72 h co-culture with RCH-ACV, untreated CD8+ CAR-T cells (human ROR1 (human)): 2.84
specific lysis of K562/ROR1 target cells by CD8+ CAR-T cells without dasatinib, t=10 h (human ROR1 (human)): 94%
specific lysis of K562/ROR1 target cells by CD8+ CAR-T cells without dasatinib, up to t=5 h (human ROR1 (human)): 73%
specific lysis of RCH-ACV target cells by untreated CD8+ CAR-T cells, t=8 hours (human ROR1 (human)): > 90%
B3: ROR1 CAR with 4-1BB costimulatory domain (receptor)
chain: QVQLVESGGALVQPGGSLTLSCKASGFDFSAYYMSWVRQAPGKGLEWIATIYPSSGKTYYAASVQGRFTISADNAKNTVYLQMNSLTAADTATYFCARDSYADDGALFNIWGQGTLVTVSSGGGGSGGGGSGGGGSQLVLTQSPSVSAALGSSAKITCTLSSAHKTDTIDWYQQLAGQAPRYLMYVQSDGSYEKRSGVPDRFSGSSSGADRYLIISSVQADDEADYYCGADYIGGYVFGGGTQLTVGESKYGPPCPPCPMFWVLVVVGGVLACYSLLVTVAFIIFWVKRGRKKLLYIFKQPFMRPVQTTQEEDGCSCRFPEEEEGGCELRVKFSRSADAPAYQQGQNQLYNELNLGRREEYDVLDKRRGRDPEMGGKPRRKNPQEGLYNELQKDKMAEAYSEIGMKGERRRGKGHDGLYQGLSTATKDTYDALHMQALPPR
